# Experimental data: the DeepSol protein solubility set
# Test: soluble on expression in E. coli; label from the status in PepcDB or PDB records
row,Sequence,soluble on expression in E. coli
1,MNDFSLELPVRTNKPRETGQSILIDNGYPLQFFKDAIAGASDYIDFVKFGWGTSLLTKDLEEKISTLKEHDITFFFGGTLFEKYVSQKKVNEFHRYCTYFGCEYIEISNGTLPMTNKEKAAYIADFSDEFLVLSEVGSKDAELASRQSSEEWLEYIVEDMEAGAEKVITEARESGTGGICSSSGDVRFQIVDDIISSDIDINRLIFEAPNKTLQQGFIQKIGPNVNLANIPFHDAIALETLRLGLRSDTFFL,soluble
2,MNDSAPRRVRVRAPELIGKGGWLNTGDKQYTLADLRGRIVVLDFWTFCCINCLHVLDELRELEEKHRDTVVIIGVHSPKFVHEAEHQAVVDAVERYGVEHPVLDDPELATWKQYAVRAWPTLVVIDPEGYVVAQHAGEGHAHAIAALVAELEAEHEAKGTLRRGDGPYVAPEPEPTVLRFPGKALLLPSGNFLVSDTTRHQLVELAADGESVVRRIGSGIRGFADGPADAASFSEPQGMTLLDEDVVVVADTVNHALRRLDLATGEVTTLAGTGRQWWQGSPASGPAREVDLSSPWDVAVFGGRVWIAMAGGAPAVDVRPGGGDGRGRGGHDERGAGRRTGLEHHHHHH,soluble
3,MNEFEDLLNSVSQVETGDVVSAEVLTVDATQANVAISGTGVEGVLTLRELTNDRDADINDFVKVGEVLDVLVLRQVVGKDTDTVTYLVSKKRLEARKAWDKLVGREEEVVTVKGTRAVKGGLSVEFEGVRGFIPASMLDTRFVRNAERFVGQEFDTKIKEVNAKENRFILSRREVVEAATAAARAEVFGKLAVGDVVTGKVARITSFGAFVDLGGVDGLVHLTELSHERNVSPKSVVTVGEEIEVKILDLNEEEGRVSLSLKATVPGPWDGVEQKLAKGDVVEGTVKRLTDFGAFVEVLPGIDGLVHVSQISHKRIENPKEALKVGQEVQVKVLEVNADAERVSLSIKALEERPAQEEGQKEEKRAARPRRPRRQEKRDFELPETQTGFSMADLFGDIELLEHHHHHH,soluble
4,MNEKKERIIKTSIRLFAKKGFAATTIQEIASECGISKGAFYLHFKSKEALLLSACEYYIGMSMNKMKNIEEDLAGKPPKEVLKKQIGAQFEDFRDHKDFIVLLLTENIIPENQEIKQYFYKVTMETDKLYRNALLVSYGEGIERYVADLSIMARGIVHSYMNVMVFNGELNIDAEEISAFIIERLDDLVQGLSRSALNPIVSKDIFNPMPAGKDQLLEDIQKVKENSTLPEDITVSLDVIEEELTQDKPRKPIIKGMLSNLAGTNDKEVERLRALILSLSQFDHKKSSL,not soluble
5,MNERDIICAGCGVKIQTESKEMLGYTPPSALKRDVIICQRCFRMQHYNEVQDVSLTDDDFLKILHTIGERKALIVKLVDIFDFNGSWLPGLHRFVGGNDVLLIGNKVDLLPKSVNRNRMINWMRKSAKDLGLKPIDVALISGEKGIGVKEVASLIDRLRKGKDVYVVGATNVGKSTFINKMIQIFGGDEEQMITTSHFPGTTLDMIDIPLDDGKTLYDTPGIINHHQMAHYVAKNELKLITPKKEIKPKVFQLNEEQTLFFGGLARFDFVKGERTSFVCYVSNDLFIHRTKLEKADELYEKRLGDVLTPPEDPQHLPSLVKHEFTIRVQKVDVVISGLGWVTVNGTNVKVCAYAPEGVGVSIRESLILEHHHHHH,soluble
6,MNERIFRENTRPVQVGNLTIGGSEELTIQSMTTTKTHDVEATVAEIHRLEEVGCQIVRVACPDERAANALSAIKKRIHIPLVADIHFDYRLALKAIDAGVDKIRINPGNIGRRDRVEKVVNAAKAKNIPIRIGVNAGSLEKKIIQKYGYPTAEGMVESALAHIKILEDLDFYDIIVSLKASDVNLAIEAYDKASRAFNYPLHLGITESGTQFAGGIKSAAGLGAILSLGIGNTLRVSLSADPVEEIKVAREVLKSFGLSSNAAMLISCPTCGRIEIDLIRIANEVENYIATIKAPIKVAVLGCAVNGPGEAREADIGIAGSNGEGLLFRHGKIIRKVPEAIMVEELKKEIDILAEEYFEKKTDLESLR,not soluble
7,MNFHVMLTSSHETSFNFVVLLRANSKMKQQRNACRSCRLKECIKVGMNPRAVQGDIDTASTSSASPNLVSVEMHPYTNFREVECQTEVSTISSHPTSPSTLPFVSSGSSICSVSSSCSSVSTVYSNCLAMLPPNPSLPKYDYLLASLSRIFERVDEHAPEPLPNTYSFEHAFYNPHLICNRTKLTPTGERIATLPEVLQDFRRIFVLFTDVLSILPEFSRLDESDRMVLAKSRFSFFYWWLTCCWTAKVGCPGVCYANGAYHPSDKRQQAFPDVKGVTELSVETVSKPLANINITDAEMLVGSVFAIFYEYPLPPKVSYASTHILNEARDLYTQCMITVSPYSQLEAKSASRLAEISLIFSSITNLKYLTSDNIELSDVLHVMEVDQLITEAFDVHRPME,not soluble
8,MNFLSEQLLAHLNKEQQEAVRTTEGPLLIMAGAGSGKTRVLTHRIAYLMAEKHVAPWNILAITFTNKAAREMRERVQSLLGGAAEDVWISTFHSMCVRILRRDIDRIGINRNFSILDPTDQLSVMKTILKEKNIDPKKFEPRTILGTISAAKNELLPPEQFAKRASTYYEKVVSDVYQEYQQRLLRNHSLDFDDLIMTTIQLFDRVPDVLHYYQYKFQYIHIDEYQDTNRAQYTLVKKLAERFQNICAVGDADQSIYRWRGADIQNILSFERDYPNAKVILLEQNYRSTKRILQAANEVIEHNVNRKPKRIWTENPEGKPILYYEAMNEADEAQFVAGRIREAVERGERRYRDFAVLYRTNAQSRVMEEMLLKANIPYQIVGGLKFYDRKEIKDILAYLRVIANPDDDLSLLRIINVPKRGIGASTIDKLVRYAADHELSLFEALGELEMIGLGAKAAGALAAFRSQLEQWTQLQEYVSVTELVEEVLDKSGYREMLKAERTIEAQSRLENLDEFLSVTKHFENVSDDKSLIAFLTDLALISDLDELDGTEQAAEGDAVMLMTLHAAKGLEFPVVFLIGMEEGIFPHNRSLEDDDEMEEERRLAYVGITRAEEELVLTSAQMRTLFGNIQMDPPSRFLNEIPAHLLETASRRQAGASRPAVSRPQASGAVGSWKVGDRANHRKWGIGTVVSVRGGGDDQELDIAFPSPIGIKRLLAKFAPIEKV,soluble
9,MNGKVIIVTGGSSGMGKYMAKRFVSDGANVVITGRRAEALEEAKREIAAPDGGKVLTIPMDVRNPEQVAHMVERTDAEFGRIDALINNAAGNFICPAEKLSINGWNSVINIVLNGTFYCSREVGNYWIQRGLKGNIINIVATYAWHAGAGVIHSASAKAGVLAMTRTLAVEWGKKYGFRVNAIAPGPIERTGGAERLWESEEAERMTLESVPLGRLGTPEEIAAVASFLLSDEAAYINGACITVDGGQWLNRRPF,soluble
10,MNHLPVVGEDYVEIPDGRPFAPLAGKIEVVEIFGYTCPHCAHFDSKLQAWGARQAKDVRFTLVPAVFGGVWDPFARAYLAADVLGVAKRSHTAMFEAIHEKGSVPIQNVGPDELAVFYAGYGVQPDRFVATFNGPEVEKRFQAARAYALKVRPVGTPTIVVNGRYMVTGHDFEDTLRITDYLVSRERAASHGR,soluble
11,MNHMKKNILFDGLRSVARIGETAFVAARAGIKYATEKPSNAKLMRETFESLGSTYIKLGQFIASTPSLFPREYVEEFQGCLDQTPTLPFSYIQEVLAEEFEGRDLNQIFASIDETPLASASIAQVHAARLTTGEDVVIKVQKPGVETILYTDLNVVHWATKMLEKAIPKVKFASLSEIVEEIKIRMVREVDFIEEAQNLDDFVEYLKITNNQAATAPKVYHQFSTRRILTMERLYGVSLTDFDIVKKFAKDPSQVLITAMNTWFGSLMLCKSFHADLHAGNLMLLEDGRIGFIDFGIVGQLNPQVWTACLAFMDALQKTDYTAMAENMLKMGMTKTQIDTQVLAQDLERLFSGVLLADPQEILASKPSDLNDIMLDMVAVGERHGIKFPRDFALLFKQMLYFDRFMRVLAPYTDIYADQRLKMVQTIEPQSLLKH,not soluble
12,MNIAELYGKMGKHSWRIMDAIFKNLWDYEYVPLQLISSHARIGEEKARNILKYLSDLRVVQNRQKDYEGSTFTFIGLSLYSLHRLVRSGKVDAIGKLMGEGKESAVFNCYSEKFGECVVKFHKVGHTSFKKVKEKRDYGDLHFSVLAIRSARNEFRALQKLQGLAVPKVYAWEGNAVLMELIDAKELYRVRVENPDEVLDMILEEVAKFYHRGIVHGDLSQYNVLVSEEGIWIIDFPQSVEVGEEGWREILERDVRNIITYFSRTYRTEKDINSAIDRILQE,soluble
13,MNIHKALCLSAGVSVALISLAAQAAETVTIATVNNGDMIRMQRLSKIFEQQHPDIKLNWVVLEENVLRQRLTTDIATQGGQFDVLTIGTYETPLWGAKQWLEPITDLAPEYDLEDIFPSVRQGLSVKNTLYALPFYGESTITYYRTDLFKQAGLSMPERPTWTQLGEFAAKLHQPDKGVYGMCLRGKAGWGENIALLSTMANAFGARWFDEHWKPELNSPEWANAANFYVNTLKNYGPPGVSSNGFNETLALFNSGKCALWVDASVAGSFTTDKEQSKVVDSVGFAPAPVEVTDKGSSWLYAWSLAIPATSRHKDAAKAFITWATSKAYIQLVAEKDGITNVPPGTRTSTYSEAYLKAAPFAKVTLQMMQHADPAQPSAKPVPYVGIQYVTIPEFQAIGTSVGKLFSAAVTGQTTTEQALTAAQAVTEREMKRAGYPK,not soluble
14,MNILLCCAAGMSSSLIVTKMEKAAEARGIEVKIWAVSGSEVNSHIDEADVLLLGPQVRYLLPKMKELCKGKGVPVDVIQSVHYGLCNGEAILQAALSMKP,not soluble
15,MNINRNKIVQLADTDTIENLTSALSQRLIADQLRLTTAESCTGGKLASALCAAEDTPKFYGAGFVTFTDQAKMKILSVSQQSLERYSAVSEKVAAEMATGAIERADADVSIAITGYGGPEGGEDGTPAGTVWFAWHIKGQNYTAVMHFAGDCETVLALAVRFALAQLLQLLL,not soluble
16,MNIREIAAKCSKCGYCTTCPTYRIEGWETVSPRGKIQLALKYVDGEIDVDQKIVKDIFKCSVCGLCQEVCPVELPLIDFWEELRRTLVQKGLAPLSVHRKLREILEHHHHHH,not soluble
17,MNITKTLCLCAALSGAAGVQAMENREFVTQQDNTRVNNYQTNRPEASKRLFVSQEVERQIDHIKQLLTNAKLAWMFENCFPNTLDTTVHFDGKEDTFVYTGDIHAMWLRDSGAQVWPYVQLANKDPELKKMLAGVINRQFKCINIDPYANAFNMNSEGGEWMSDLTDMKPELHERKWEIDSLCYPIRLAYHYWKTTGDASVFSDEWLQAIANVLKTFKEQQRKDDAKGPYRFQRKTERALDTMTNDGWGNPVKPVGLIASAFRPSDDATTFQFLVPSNFFAVTSLRKAAEILNTVNRKPALAKECTALADEVEKALKKYAVCNHPKYGKIYAFEVDGFGNQLLMDDANVPSLIALPYLGDVKVTDPIYQNTRKFVWSEDNPYFFKGSAGEGIGGPHIGYDMIWPMSIMMKAFTSQNDAEIKTCIKMLMDTDAGTGFMHESFNKNDPKNFTRAWFAWQNTLFGELILKLVNEGKVDLLNSIQLEHHHHHH,soluble
18,MNKCFLKIAIVAGEESGDLLGADLISCLSQQTGCKIDLIGVGGRHLKALGLKSFFDFQDIALIGLGTVLKKLPLLLIHIHNLSKFIAKEQPDCLIIIDSPDFTHRVAKKVHVLAPSIPIIKYIAPTVWAWRPERAKAMRKFVDHVLAVFPFEKKIMQDLGGPPTTYVGHRLLTYPPLLTIQSKKRHQSEKKHVFAKQTSSPTLVILPGSRNLEIRYLMPIFREAVEILIQRIPHLHIILPTLPHFVDEIRAFVQSWKNKVEILVDEDAKWHAFSKADVALAALGTVSLELALAKIPMVLCYKLDRFSKLFIFPKIMLWSAALPNIISDKPIVPEYFNEFLRPGMLARQIEELLYNPLLRQAQLDVFEMVEQKMKTEVPSGVIAAQTIVTLLKKRSGSLKFS,not soluble
